Biological target: HLA-A*0201 (human, UniProt A*02:01)
Test: REVEAL MHC binding assay (ProImmune)

| Binder | % Pass/fail control |
| --- | --- |
| LLAPRFLEV (Modified peptide) [Peptide ID 142 LLAPRFLEV (CD50, modified peptide)] | 218 % of pass/fail control |
| ILLLVIWKA [Peptide ID 130 ILLLVIWKA (CD18)] | 56.7 % of pass/fail control |
| LLLREHNRL [Peptide ID 113 LLLREHNRL (MPO)] | 195 % of pass/fail control |
| GLADVAVGV (Modified peptide) [Peptide ID 146 GLADVAVGV (CD11a, modified peptide)] | 213 % of pass/fail control |
| PLWGGIMYI [Peptide ID 10 PLWGGIMYI (CD20)] | 155 % of pass/fail control |
| LLAEVTLAV (Modified peptide) [Peptide ID 147 LLAEVTLAV (CD53, modified peptide)] | 254 % of pass/fail control |
| GLYQGLSTV (Modified peptide) [Peptide ID 140 GLYQGLSTV (TCR_TV, modified peptide)] | 214 % of pass/fail control |
| ALPAALAVI [Peptide ID 127 ALPAALAVI (CD7)] | 264 % of pass/fail control |
| LLMVFVALL [Peptide ID 121 LLMVFVALL (CD2)] | 114 % of pass/fail control |
| ALARGLPGV (Modified peptide) [Peptide ID 143 ALARGLPGV (CD7, modified peptide)] | 297 % of pass/fail control |
| VLDIYGFEV [Peptide ID 18 VLDIYGFEV (HA-2)] | 161 % of pass/fail control |
| LLQPFMFRV (Modified peptide) [Peptide ID 135 LLQPFMFRV (MPO, modified peptide)] | 329 % of pass/fail control |
| VLWHWLLRT [Peptide ID 105 VLWHWLLRT (CD19)] | 337 % of pass/fail control |
| ALYDKTKRI [Peptide ID 115 ALYDKTKRI (TdT_TV2)] | 260 % of pass/fail control |
| TVQEGLCVL [Peptide ID 123 TVQEGLCVL (CD33)] | 75.2 % of pass/fail control |
| FLPDAFVTV (Modified peptide) [Peptide ID 133 FLPDAFVTV (TdT, modified peptide)] | 204 % of pass/fail control |
| LLIPAGIYV (Modified peptide) [Peptide ID 136 LLIPAGIYV (CD20, modified peptide)] | 275 % of pass/fail control |
| YLMDLSYSV (Modified peptide) [Peptide ID 134 YLMDLSYSV (CD18, modified peptide)] | 242 % of pass/fail control |
| SLTLGNVFV [Peptide ID 122 SLTLGNVFV (CD53)] | 150 % of pass/fail control |
| SLAQVVMKV [Peptide ID 20 SLAQVVMKV (CD11a)] | 155 % of pass/fail control |
| KIVEWDWKI [Peptide ID 109 KIVEWDWKI (CD48)] | 236 % of pass/fail control |
| LLFIVVLTL [Peptide ID 119 LLFIVVLTL (FLT3)] | 114 % of pass/fail control |
| LLDPKLCYL [Peptide ID 13 LLDPKLCYL (TCR_TV)] | 204 % of pass/fail control |
| HMRPLAIWL [Peptide ID 106 HMRPLAIWL (CD19)] | 56.2 % of pass/fail control |
| VMNGTDPEL [Peptide ID 120 VMNGTDPEL (CD2)] | 200 % of pass/fail control |
| KLSLGLPGL [Peptide ID 118 KLSLGLPGL (CD19)] | 209 % of pass/fail control |
| LLWAGALAV (Modified peptide) [Peptide ID 148 LLWAGALAV (CD33, modified peptide)] | 272 % of pass/fail control |
| SLYGPGSYL [Peptide ID 15 SLYGPGSYL (HA-1)] | 198 % of pass/fail control |

| Binder | % Pass/fail control |
| --- | --- |
| FLPDAFVTM [Peptide ID 16 FLPDAFVTM (TdT)] | 164 % of pass/fail control |
| VLAEASASQ [Peptide ID 125 VLAEASASQ (FLT3)] | 103 % of pass/fail control |
| ILYPINILV (Modified peptide) [Peptide ID 149 ILYPINILV (CD11a, modified peptide)] | 321 % of pass/fail control |
| CMAGARVQV [Peptide ID 117 CMAGARVQV (CD50)] | 158 % of pass/fail control |
| YLLDGILFI [Peptide ID 1 YLLDGILFI (TCR_TV)] | 201 % of pass/fail control |
| ALAVISFLL [Peptide ID 114 ALAVISFLL (CD7)] | 221 % of pass/fail control |
| KLGGDLLRA [Peptide ID 129 KLGGDLLRA (CD18)] | 229 % of pass/fail control |
| SLFLGILSV (also called peptide #19; pep 19) [Peptide ID 19 SLFLGILSV (CD20)] | 160 % of pass/fail control |
| SLFAAISGM [Peptide ID 124 SLFAAISGM (CD20)] | 203 % of pass/fail control |
| YLLRVIETL [Peptide ID 14 YLLRVIETL (HA-1)] | 179 % of pass/fail control |
| LLLSGAARV (Modified peptide) [Peptide ID 138 LLLSGAARV (PR3, modified peptide)] | 210 % of pass/fail control |
| ELLDVSWLV (Modified peptide) [Peptide ID 150 ELLDVSWLV (TdT, modified peptide)] | 239 % of pass/fail control |
| YLRPGQAAV (Modified peptide) [Peptide ID 144 YLRPGQAAV (CD18, modified peptide)] | 227 % of pass/fail control |
| ELDEELHYV (Modified peptide) [Peptide ID 137 ELDEELHYV (CD33, modified peptide)] | 218 % of pass/fail control |
| FLQPLFLVV (Modified peptide) [Peptide ID 141 FLQPLFLVV (HA-1, modified peptide)] | 270 % of pass/fail control |
| VIVGSIIMV [Peptide ID 110 VIVGSIIMV (CD53)] | 113 % of pass/fail control |
| FLVNTVLWV [Peptide ID 12 FLVNTVLWV (CD64)] | 133 % of pass/fail control |
| SMFHVTLKI [Peptide ID 128 SMFHVTLKI (CLL-1)] | 307 % of pass/fail control |
| YLHVALDLL [Peptide ID 107 YLHVALDLL (MPO)] | 278 % of pass/fail control |
| FVANAIIHL [Peptide ID 111 FVANAIIHL (CD52)] | 276 % of pass/fail control |
| RLLFFLLFL [Peptide ID 112 RLLFFLLFL (CD19)] | 42.3 % of pass/fail control |
| SLQSGILTL [Peptide ID 11 SLQSGILTL (CD127)] | 181 % of pass/fail control |
| LLFLTPMEV [Peptide ID 108 LLFLTPMEV (CD19)] | 283 % of pass/fail control |
| FLQDTFPQV (Modified peptide) [Peptide ID 132 FLQDTFPQV (CD127, modified peptide)] | 216 % of pass/fail control |
| SLSEEVTYV (Modified peptide) [Peptide ID 145 SLSEEVTYV (CLL-1, modified peptide)] | 191 % of pass/fail control |
| LLQRPGLQL [Peptide ID 126 LLQRPGLQL (CD64)] | 231 % of pass/fail control |
| WMGGVSEPL [Peptide ID 116 WMGGVSEPL (MPO)] | 199 % of pass/fail control |

Reference: patent publication US20110142842A1 (MEDINNOVA, published 2011)
